The source of these data is article PMC2936520.

The target of the data set is OsAP2-39 (OsNUE39) (Oryza sativa) (UniProt Q7XPL6). The data set is described as follows: EMSA. Conditions: Invitrogen EMSA kit E33075 per manufacturer; 30 ng protein with 0-400 ng DNA; 4-20% TBE native gel, 200 V, 45 min; buffer, salt, pH and temperature not stated.
Sequence of OsAP2-39 (OsNUE39) (Oryza sativa) (Q7XPL6 entry or part of it): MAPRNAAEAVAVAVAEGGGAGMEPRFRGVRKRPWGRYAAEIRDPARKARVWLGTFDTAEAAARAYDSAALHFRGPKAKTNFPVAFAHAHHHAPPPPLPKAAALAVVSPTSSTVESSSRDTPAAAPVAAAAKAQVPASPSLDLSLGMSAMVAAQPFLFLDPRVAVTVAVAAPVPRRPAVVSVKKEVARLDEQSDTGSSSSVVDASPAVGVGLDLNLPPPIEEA

In the case of “AGTGTTCTGTTCCCCCGGGGAGATAAACCCCCCCTCCTTGGCAACGATACTACCAAGGTTTCTCATCACCAAGATTGTTTGCATGGGACACAGTAACAAACACCGCAGCCGCCGGCGCCGCAGACATT (double strand) [OsNCED-1 promoter GCC-box fragment]”, the binding entry is “binds”.
